Test results published in IntAct's records for PubMed 23263556.

B1: Nuclear factor of activated T-cells, cytoplasmic 1 (Homo sapiens), O95644 (parent)
chain: MPSTSFPVPSKFPLGPAAAVFGRGETLGPAPRAGGTMKSAEEEHYGYASSNVSPALPLPTAHSTLPAPCHNLQTSTPGIIPPADHPSGYGAALDGGPAGYFLSSGHTRPDGAPALESPRIEITSCLGLYHNNNQFFHDVEVEDVLPSSKRSPSTATLSLPSLEAYRDPSCLSPASSLSSRSCNSEASSYESNYSYPYASPQTSPWQSPCVSPKTTDPEEGFPRGLGACTLLGSPRHSPSTSPRASVTEESWLGARSSRPASPCNKRKYSLNGRQPPYSPHHSPTPSPHGSPRVSVTDDSWLGNTTQYTSSAIVAAINALTTDSSLDLGDGVPVKSRKTTLEQPPSVALKVEPVGEDLGSPPPPADFAPEDYSSFQHIRKGGFCDQYLAVPQHPYQWAKPKPLSPTSYMSPTLPALDWQLPSHSGPYELRIEVQPKSHHRAHYETEGSRGAVKASAGGHPIVQLHGYLENEPLMLQLFIGTADDRLLRPHAFYQVHRITGKTVSTTSHEAILSNTKVLEIPLLPENSMRAVIDCAGILKLRNSDIELRKGETDIGRKNTRVRLVFRVHVPQPSGRTLSLQVASNPIECSQRSAQELPLVEKQSTDSYPVVGGKKMVLSGHNFLQDSKVIFVEKAPDGHHVWEMEAKTDRDLCKPNSLVVEIPPFRNQRITSPVHVSFYVCNGKRKRSQYQRFTYLPANVPIIKTEPTDDYEPAPTCGPVSQGLSPLPRPYYSQQLAMPPDPSSCLVAGFPPCPQRSTLMPAAPGVSPKLHDLSPAAYTKGVASPGHCHLGLPQPAGEAPAVQDVPRPVATHPGSPGQPPPALLPQQVSAPPSSSCPPGLEHSLCPSSPSPPLPPATQEPTCLQPCSPACPPATGRPQHLPSTVRRDESPTAGPRLLPEVHEDGSPNLAPIPVTVKREPEELDQLYLDDVNEIIRNDLSSTSTHS

Variants of: B1
Conditions: with jak3_human JAK3, P52333
jak3_human JAK3, P52333, sequence (P52333 whole entry): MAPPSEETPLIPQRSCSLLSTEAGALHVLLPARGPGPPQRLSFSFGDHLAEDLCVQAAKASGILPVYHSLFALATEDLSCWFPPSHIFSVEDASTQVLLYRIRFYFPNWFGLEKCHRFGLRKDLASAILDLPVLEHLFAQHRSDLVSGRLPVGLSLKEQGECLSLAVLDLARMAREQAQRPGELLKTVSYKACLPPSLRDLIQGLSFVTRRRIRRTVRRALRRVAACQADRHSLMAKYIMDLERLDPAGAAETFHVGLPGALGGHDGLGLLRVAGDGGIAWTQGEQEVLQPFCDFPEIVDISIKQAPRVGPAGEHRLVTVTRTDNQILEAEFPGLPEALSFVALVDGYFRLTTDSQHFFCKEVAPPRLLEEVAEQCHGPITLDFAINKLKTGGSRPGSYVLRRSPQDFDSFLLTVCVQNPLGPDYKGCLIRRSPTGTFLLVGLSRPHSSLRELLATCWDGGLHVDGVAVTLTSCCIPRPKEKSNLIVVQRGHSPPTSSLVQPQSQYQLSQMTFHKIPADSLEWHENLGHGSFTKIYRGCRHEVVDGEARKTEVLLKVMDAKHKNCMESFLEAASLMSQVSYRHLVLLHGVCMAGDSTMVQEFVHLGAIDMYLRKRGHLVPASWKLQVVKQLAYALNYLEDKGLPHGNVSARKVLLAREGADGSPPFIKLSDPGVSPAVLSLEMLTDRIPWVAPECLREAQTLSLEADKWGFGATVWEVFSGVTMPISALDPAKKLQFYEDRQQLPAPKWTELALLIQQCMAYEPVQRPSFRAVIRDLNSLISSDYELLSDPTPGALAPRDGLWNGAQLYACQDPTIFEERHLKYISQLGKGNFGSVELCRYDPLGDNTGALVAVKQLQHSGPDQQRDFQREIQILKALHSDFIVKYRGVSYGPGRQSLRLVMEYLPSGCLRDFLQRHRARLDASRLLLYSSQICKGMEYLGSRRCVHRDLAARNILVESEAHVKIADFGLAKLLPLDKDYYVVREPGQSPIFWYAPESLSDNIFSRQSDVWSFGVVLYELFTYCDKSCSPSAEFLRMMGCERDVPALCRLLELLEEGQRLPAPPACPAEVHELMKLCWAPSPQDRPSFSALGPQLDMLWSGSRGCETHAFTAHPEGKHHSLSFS

effect of a mutation on the interaction	Variant
disrupting interaction	Y371A
